The values that follow are results of earlier work, collected in PMC12406711.

The target in this data set is PCDH10 ECD (Homo sapiens) (UniProt Q9P2E7).

In general, Kd refers to the constant that tells how readily two partners part at equilibrium. Consider PCDH10 ECD (from UniProt Q9P2E7), for which the Kd is 3.6 µM.
